Assay results from paper doi:10.1101/2024.09.30.615892.

What was measured:
[1] = tested on: T1, EppR-His6 (Acinetobacter baumannii ATCC17978), ORF:cce4f89b; assay: EMSA
T1 sequence: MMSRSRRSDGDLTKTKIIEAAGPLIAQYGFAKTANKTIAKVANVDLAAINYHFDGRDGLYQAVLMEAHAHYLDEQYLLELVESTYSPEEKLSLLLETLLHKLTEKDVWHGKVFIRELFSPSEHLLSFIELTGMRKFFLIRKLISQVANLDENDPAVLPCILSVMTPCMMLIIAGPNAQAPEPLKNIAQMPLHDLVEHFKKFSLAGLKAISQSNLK

[2] = tested on: EppR-His6 (Acinetobacter baumannii ATCC17978); assay: EMSA

AATAAAGTAGAGCACAGCTTAATTTCAAATTTAAAAGTTGTGGATAAACAAATTGATCTAGAAAAAATGATCAACGGATAAAGGAATATTTAATTTTTTTATGCGGGCCTCTACCGCTTATAGAACAGTTTTTAAACAATTTTACTTATAGCTTCATTCA (double strand) [umuDC0636-0637 promoter]
binding [1]: binds

ACCATTTTGAAATCGTAACAAATTCAAGATAAATGGTAGAGTTGAGTAAAGAGAAATTCAAATTTAAAAAATTGTGGATAAACAAGTAAAAGTCAAAAATTGTCGCAGTATCTGGCGCATTTGGTCGGAAATTCTTCAGTTCTGATCTAG (double strand) [umuC2015 promoter]
binding [1]: binds

ACTCATATTTAAGTGTTCAGAATTTCATTGATAAAAATCAAAACAGTCAGTAATAAGAACTATTTCACAATAGGTTTTGATTCTCTTCAAATTACCATTTCCGTTTTAACATCCCTGTTAAAAGCAAAATGGATTAAAATCTGATCATGAAATTTATTGTTATGCAAAAAAAATATTTCGTCAACTTGAAAATGTAACTTTTTCAAGTTACATTGTTTGTGTAGGATTTGAACGGTGAAATGGAGGCGAT (double strand) [umuDAb (1389) promoter]
binding [1]: binds

ATGTTTCCCCTAGCTTGATTTTGTAACATATTCAAGATGATATTCTAGAGATGAGCATAAATTCAAATTTAAAAAGTTGTGGATAAACAAGGGGAAGTCAAAAACTGACGTAGCCAAAAGTGCATTTGGTCGGAATTTATGCATTGCTGTACAGTGAGGCAACCATAGCATGGGAATCAAAATATTAGCTTTGAGATTGTAAATCTTTGTGGAACTTAATGTTCCACACTATTGCTTATTTATAGCAAAT (double strand) [umuDC1174-1173 promoter]
binding [1]: binds

CTTTTTTATTCATCTTTTTGGCCTTCTTATTAAATTCAAATTTACATAGTTTAAATTCAATTTAAATTTAAATTACCTTAATCTTTGAATAAAAGATATACTTTTATGATGAAATAAAATTAGGTTTAAACATGTCC (double strand) [eppR promoter]
Kd [1]: 123 nM

TATTTCATCCCCTTACTCATTAACTGAAATCTGCATTTTGAATTTGTAACATAATCAAGTTAACAAAATTACGGGCTGATATCTAGGGGAGTTTCAGTTGTTCGTCGAAATTATAGGTAGGAGATAAAATCTATGAAATGTCAGTTATTGATATGGAAATGTCTGAAAATGATAAGTTTTAATTGGTTATGATCGGAAATATAAGAGCTATATTTAATGGATGAGTTGAGTCTTTTAAATGTAGTAATGC (double strand) [umuC2008 promoter]
binding [1]: binds

eppR promoter
Kd [2]: 123 nM
